Source: the supplement of paper PMC9112550, “Optimization of the antimicrobial peptide Bac7 by deep mutational scanning” (BMC Biology, 2022)

Each sequence was assayed on Escherichia coli TOP10 (assay: shrunken log2 fold change of peptide-encoding DNA abundance (4.5 h post-induction vs induction); higher = less antimicrobial activity (less host growth inhibition)). Details: time post-induction: 4.5 h; library: site-saturation at positions 5, 18, 19, 20.
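Note: peptides expressed intracellularly from a pBAD plasmid library in pooled LB shake-flask culture, induced with 0.3% L-arabinose, DNA abundance read by NGS, three biological replicates, DESeq2 with apeglm shrinkage.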

Sequence | shrunken log2 fold change
RRIRNRPPRLPRPRPRPGWTPRP | 0.0174
RRIRSRPPRLPRPRPRPPCWPRP | 0.29
RRIRKRPPRLPRPRPRPWGQPRP | 0.0379
RRIRNRPPRLPRPRPRPNIHPRP | -0.457
RRIRPRPPRLPRPRPRPSVVPRP | -0.162
RRIRTRPPRLPRPRPRPVRCPRP | 0.382
RRIRPRPPRLPRPRPRPISQPRP | -0.0721
RRIRIRPPRLPRPRPRPIPAPRP | -0.0353
RRIRYRPPRLPRPRPRPWFNPRP | -0.0994
RRIRGRPPRLPRPRPRPQHPPRP | 0.426
RRIRRRPPRLPRPRPRPMIMPRP | -0.323
RRIRFRPPRLPRPRPRPELPPRP | -0.0615
RRIRGRPPRLPRPRPRPYLCPRP | 0.0395
RRIRLRPPRLPRPRPRPQDHPRP | -0.203
RRIRHRPPRLPRPRPRPARAPRP | 0.345
RRIRSRPPRLPRPRPRPAIEPRP | 0.00515
RRIRARPPRLPRPRPRPTFCPRP | 0.386
RRIRVRPPRLPRPRPRPLMAPRP | 0.049
RRIRNRPPRLPRPRPRPFDCPRP | 0.0101
RRIRQRPPRLPRPRPRPKIPPRP | -0.0111
RRIRHRPPRLPRPRPRPGNAPRP | 0.137
RRIRMRPPRLPRPRPRPQRDPRP | 0.0785
RRIRSRPPRLPRPRPRPLQGPRP | -0.0686
RRIRHRPPRLPRPRPRPYQTPRP | -0.112
RRIRNRPPRLPRPRPRPRFHPRP | 0.0377

Sequence | shrunken log2 fold change
RRIRVRPPRLPRPRPRPAMRPRP | 0.6
RRIRQRPPRLPRPRPRPDWDPRP | -0.00122
RRIRNRPPRLPRPRPRPAVQPRP | 0.109
RRIRERPPRLPRPRPRPCRAPRP | -0.0474
RRIRSRPPRLPRPRPRPPKMPRP | 0.00423
RRIRDRPPRLPRPRPRPGTRPRP | 0.118
RRIRNRPPRLPRPRPRPDSPPRP | -0.0758
RRIRGRPPRLPRPRPRPYPRPRP | 0.162
RRIRYRPPRLPRPRPRPVYVPRP | -0.37
RRIRGRPPRLPRPRPRPNRYPRP | 0.0443
RRIRIRPPRLPRPRPRPKGYPRP | -0.0143
RRIRRRPPRLPRPRPRPRKVPRP | 0.602
RRIRIRPPRLPRPRPRPWNAPRP | 0.0267
RRIRDRPPRLPRPRPRPPLKPRP | 0.0742
RRIRCRPPRLPRPRPRPNTHPRP | -0.499
RRIRQRPPRLPRPRPRPITFPRP | -0.11
RRIRTRPPRLPRPRPRPYFTPRP | -1.11
RRIRRRPPRLPRPRPRPHVEPRP | -0.162
RRIRHRPPRLPRPRPRPSIYPRP | -0.418
RRIRWRPPRLPRPRPRPKHWPRP | 0.4
RRIRQRPPRLPRPRPRPRDSPRP | 0.0142
RRIRTRPPRLPRPRPRPVGAPRP | 0.327
RRIRCRPPRLPRPRPRPTEDPRP | -0.0639
RRIRWRPPRLPRPRPRPDGVPRP | -0.1
RRIRNRPPRLPRPRPRPATPPRP | 0.537

Sequence | shrunken log2 fold change
RRIRKRPPRLPRPRPRPLLEPRP | 0.241
RRIRNRPPRLPRPRPRPARKPRP | 0.0797
RRIRVRPPRLPRPRPRPQYSPRP | 0.0315
RRIRFRPPRLPRPRPRPTYKPRP | -0.42
RRIRFRPPRLPRPRPRPSRHPRP | -0.162
RRIRKRPPRLPRPRPRPCIMPRP | 1.3
RRIRNRPPRLPRPRPRPTCFPRP | 0.0784
RRIRTRPPRLPRPRPRPITDPRP | 0.177
RRIRMRPPRLPRPRPRPTEKPRP | 1.36
RRIRQRPPRLPRPRPRPVSCPRP | 0.0853
RRIRNRPPRLPRPRPRPEVLPRP | -0.212
RRIRRRPPRLPRPRPRPFHQPRP | -0.191
RRIRARPPRLPRPRPRPFNQPRP | -0.257
RRIRHRPPRLPRPRPRPCHQPRP | -0.601
RRIRVRPPRLPRPRPRPCKGPRP | -0.117
RRIRCRPPRLPRPRPRPESDPRP | 0.242
RRIRYRPPRLPRPRPRPGDHPRP | 0.0294
RRIRMRPPRLPRPRPRPEAYPRP | 0.036
RRIRSRPPRLPRPRPRPVYDPRP | -0.227
RRIRPRPPRLPRPRPRPLFWPRP | 0.296
RRIRSRPPRLPRPRPRPCQQPRP | -0.147
RRIRWRPPRLPRPRPRPAMAPRP | 0.529
RRIRKRPPRLPRPRPRPHIRPRP | 0.0177
RRIRMRPPRLPRPRPRPMMLPRP | -0.15
RRIRIRPPRLPRPRPRPFMDPRP | -1.07
